{
  "source": "paper PMC2793005",
  "about": "“Dissecting the Role of Critical Residues and Substrate Preference of a Fatty Acyl-CoA Synthetase (FadD13) of Mycobacterium tuberculosis” (PLoS ONE, 2009)",
  "proteins": {"B1": {"name": "Fatty Acyl-CoA Synthetase FadD13 (Rv3089) of Mycobacterium tuberculosis, N-terminal 6x histidine tag (enzyme)", "chain": "MKNIGWMLRQRATVSPRLQAYVEPSTDVRMTYAQMNALANRCADVLTALGIAKGDRVALLMPNSVEFCCLFYGAAKLGAVAVPINTRLAAPEVSFILSDSGSKVVIYGAPSAPVIDAIRAQADPPGTVTDWIGADSLAERLRSAAADEPAVECGGDDNLFIMYTSGTTGHPKGVVHTHESVHSAASSWASTIDVRYRDRLLLPLPMFHVAALTTVIFSAMRGVTLISMPQFDATKVWSLIVEERVCIGGAVPAILNFMRQVPEFAELDAPDFRYFITGGAPMPEALIKIYAAKNIEVVQGYALTESCGGGTLLLSEDALRKAGSAGRATMFTDVAVRGDDGVIREHGEGEVVIKSDILLKEYWNRPEATRDAFDNGWFRTGDIGEIDDEGYLYIKDRLKDMIISGGENVYPAEIESVIIGVPGVSEVAVIGLPDEKWGEIAAAIVVADQNEVSEQQIVEYCGTRLARYKLPKKVIFAEAIPRNPTGKILKTVLREQYSATVPK", "notes": "also called native FadD13; NP; not shown: His6, N-terminal, kept"}},
  "target": "the molecule itself",
  "assay": "SEC",
  "data": [
    {"protein": "B1", "values": [
      {"measurement": "stoichiometry N", "result": 2}
    ]}
  ]
}
